Reference: patent US20240116985A1 (published 2024)
Starred links: 1 amine or outer side, 2 acyl side, 3 side chain; linkers in the order of their positions; H or OH if unused. Positions of bridges follow the written chain, without caps; N, C: chain ends. Non-standard residues stand in square brackets, D forms with d. Primed or numbered codes have the meaning given here. B5(15) = 2-amino-2-(pent-4-en-1-yl)hept-6-enoic acid (2,2-bis(4-pentenyl)glycine), stitching residue bearing two staples, C=CCCCC(CCCC=C)(N[*:1])C(=O)[*:2]; PyrS2″ = (S)-3-amino-1-((pent-4-en-1-yloxy)carbonyl)pyrrolidine-3-carboxylic acid (stapling residue), C=CCCCOC(=O)N1CC[C@@](N[*:1])(C(=O)[*:2])C1; B5(16) = 2-amino-2-(pent-4-en-1-yl)hept-6-enoic acid = 2,2-bis(4-pentenyl)glycine (stitching residue), C=CCCCC(CCCC=C)(N[*:1])C(=O)[*:2]; B5(4) = 2,2-bis(4-pentenyl)glycine = 2-amino-2-(pent-4-en-1-yl)hept-6-enoic acid (stitching residue), C=CCCCC(CCCC=C)(N[*:1])C(=O)[*:2]; B5(5) = 2,2-bis(4-pentenyl)glycine, 2-amino-2-(pent-4-en-1-yl)hept-6-enoic acid (stitching residue), C=CCCCC(CCCC=C)(N[*:1])C(=O)[*:2]; PyrS2 = (S)-3-amino-1-((pent-4-en-1-yloxy)carbonyl)pyrrolidine-3-carboxylic acid, C=CCCCOC(=O)N1CC[C@@](N[*:1])(C(=O)[*:2])C1; Phe(2-Cl) = N[C@@H](Cc1ccccc1Cl)C(=O)O; Bta = N[C@@H](Cc1csc2ccccc12)C(=O)O; αAllylPro = C=CC[C@@]1(C(=O)O)CCCN1; S8 = C=CCCCCCC[C@](C)(N)C(=O)O; hSer = N[C@@H](CCO)C(=O)O

B1: I-1526: Ac-PL3-Asp-Ser-B5-Asp-Glu-Ala-Ala-Phe-Gln-S8-Phe-BztA-Gln-NH2 (peptide)
peptide: Ac-[αAllylPro]DS[B5(5)]DEAAFQ[S8]F[Bta]Q-NH2
modifications: staple 1-4, 4-11; also: staple isomer, earlier eluting HPLC peak
notes: Stapled peptide composition; It has the same description as I-1527 and is the staple isomer composition of the earlier eluting HPLC peak
B2: I-1528: Ac-PL3-Asp-Ser-B5-Asp-Glu-Ala-Ala-Phe-Leu-S8-Phe-BztA-Gln-NH2 (peptide)
peptide: Ac-[αAllylPro]DS[B5(5)]DEAAFL[S8]F[Bta]Q-NH2
modifications: staple 1-4, 4-11
notes: Stapled peptide composition; Staple olefins are retained
B3: I-1529: Ac-PL3-Asp-Ser-B5-Asp-Glu-Ala-Ala-Phe-Hse-S8-Phe-BztA-Gln-NH2 (peptide)
peptide: Ac-[αAllylPro]DS[B5(15)]DEAAF[hSer][S8]F[Bta]Q-NH2
modifications: staple 1-4, 4-11; not fully specified; printed as Ac-PL3-Asp-Ser-B5-Asp-Glu-Ala-Ala-Phe-Hse-S8-Phe-BztA-Gln-NH2
notes: Stapled peptide composition
B4: I-1530: Ac-PL3-Asp-Ser-B5-Asp-Glu-Ala-Ala-Phe-Hse-S8-Phe-BztA-Gln-NH2 (peptide)
peptide: Ac-[αAllylPro]DS[B5(15)]DEAAF[hSer][S8]F[Bta]Q-NH2
modifications: staple 1-4, 4-11; not fully specified; printed as Ac-PL3-Asp-Ser-B5-Asp-Glu-Ala-Ala-Phe-Hse-S8-Phe-BztA-Gln-NH2
notes: Stapled peptide composition; It has the same description as I-1529 and is the staple isomer composition of the later eluting HPLC peak
B5: I-1531: Ac-PL3-Asp-Asn-B5-Asp-Glu-Ala-Ala-Phe-Gln-S8-Phe-BztA-Gln-NH2 (peptide)
peptide: XDNXDEAAFQXFXQ
modifications: not fully specified; N-terminal Ac; C-terminal NH2; PL3 at 1, B5 at 4 and S8 at 11 stapled by olefin metathesis (PL3-B5 and B5-S8); BztA at 13
notes: Stapled peptide composition; It has the same description as I-1532 and is the staple isomer composition of the earlier eluting HPLC peak
B6: I-1527: Ac-PL3-Asp-Ser-B5-Asp-Glu-Ala-Ala-Phe-Gln-S8-Phe-BztA-Gln-NH2 (peptide)
peptide: Ac-[αAllylPro]DS[B5(5)]DEAAFQ[S8]F[Bta]Q-NH2
modifications: staple 1-4, 4-11
notes: Stapled peptide composition; It has the same description as I-1526 and is the staple isomer composition of the later eluting HPLC peak
B7: I-1043 (peptide)
peptide: Ac-[αAllylPro]DF[B5(16)]DDAAFT[PyrS2″][Phe(2-Cl)][Bta]Q-NH2
modifications: staple 1-4, 4-11
notes: also called Ac-PL3-Asp-Phe-B5-Asp-Asp-Ala-Ala-Phe-Thr-PyrS2-2C1F-BztA-Gln-NH2
B8: I-1045 (peptide)
peptide: Ac-[αAllylPro]DF[B5(16)]DDAAFS[PyrS2″][Phe(2-Cl)][Bta]Q-NH2
modifications: staple 1-4, 4-11
notes: also called Ac-PL3-Asp-Phe-B5-Asp-Asp-Ala-Ala-Phe-Ser-PyrS2-2C1F-BztA-Gln-NH2
B9: I-1047 (peptide)
peptide: Ac-[αAllylPro]DF[B5(16)]DDAAFN[PyrS2″][Phe(2-Cl)][Bta]S-NH2
modifications: staple 1-4, 4-11
notes: also called Ac-PL3-Asp-Phe-B5-Asp-Asp-Ala-Ala-Phe-Asn-PyrS2-2C1F-BztA-Ser-NH2
B10: I-1051 (peptide)
peptide: Ac-[αAllylPro]DF[B5(4)]DDAAFS[PyrS2][Phe(2-Cl)][Bta]S-NH2
modifications: staple 1-4, 4-11
notes: also called Ac-PL3-Asp-Phe-B5-Asp-Asp-Ala-Ala-Phe-Ser-PyrS2-2C1F-BztA-Ser-NH2
B11: I-355 (peptide)
peptide: XDAXDDAAFVXAWQ
modifications: not fully specified; N-terminal Ac; C-terminal NH2; PL3 at 1, B5 at 4, S8 at 11 (stapled 1-4 and 4-11)
notes: Stapled peptide composition; Earlier-eluting isomer composition; also called Ac-PL3-Asp-Ala-B5-Asp-Asp-Ala-Ala-Phe-Val-S8-Ala-Trp-Gln-NH2
B12: I-356 (peptide)
peptide: XDAXDDAAFVXAWQ
modifications: not fully specified; N-terminal Ac; C-terminal NH2; PL3 at 1, B5 at 4, S8 at 11 (stapled 1-4 and 4-11)
notes: Stapled peptide composition; Later-eluting isomer composition; also called Ac-PL3-Asp-Ala-B5-Asp-Asp-Ala-Ala-Phe-Val-S8-Ala-Trp-Gln-NH2

Molecular target: T1, full-length beta-Catenin (Uniprot ID P35222) (Homo sapiens (Human), UniProt P35222 1-781)
T1 construct: Any tags on the recombinant protein are not described for the FP assay; also called bCat; B-Catenin
T1 sequence: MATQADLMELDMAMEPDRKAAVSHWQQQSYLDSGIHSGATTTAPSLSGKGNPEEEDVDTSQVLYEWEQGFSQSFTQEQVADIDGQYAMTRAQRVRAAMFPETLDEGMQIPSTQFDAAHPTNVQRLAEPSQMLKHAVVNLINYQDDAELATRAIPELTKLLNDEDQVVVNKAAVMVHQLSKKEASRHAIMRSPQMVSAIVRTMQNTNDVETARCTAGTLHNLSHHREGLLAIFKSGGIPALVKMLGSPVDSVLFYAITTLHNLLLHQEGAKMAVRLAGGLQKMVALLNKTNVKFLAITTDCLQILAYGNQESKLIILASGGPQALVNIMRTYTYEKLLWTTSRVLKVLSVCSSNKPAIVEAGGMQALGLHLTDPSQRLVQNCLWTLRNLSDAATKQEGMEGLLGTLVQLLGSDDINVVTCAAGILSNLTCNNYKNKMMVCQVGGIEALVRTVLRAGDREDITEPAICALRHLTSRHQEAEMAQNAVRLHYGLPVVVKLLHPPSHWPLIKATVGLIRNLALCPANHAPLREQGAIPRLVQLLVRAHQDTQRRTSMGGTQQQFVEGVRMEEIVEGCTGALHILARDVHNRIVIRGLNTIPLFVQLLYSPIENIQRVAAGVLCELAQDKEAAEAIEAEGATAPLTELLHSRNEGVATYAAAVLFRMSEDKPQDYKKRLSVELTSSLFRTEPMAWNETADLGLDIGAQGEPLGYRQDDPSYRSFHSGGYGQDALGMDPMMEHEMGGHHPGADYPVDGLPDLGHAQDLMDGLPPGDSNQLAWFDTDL
Test: fluorescence polarization competition; displacement of 5FAM-TCF4(10-53) from full-length beta-catenin
Experimental: (§1) The plate was incubated protected from light for 60 minutes at 20° C. prior to read. Reads were performed on a CLARIOstar plate reader (BMG Labtech) in duplicate, and data were fitted to a 1:1 binding model with hill slope using an in-house script. All provided concentrations are final concentrations.

**Q.** For B1, which IC50 is on record?
**A.** The IC50 was 0.084 µM.

**Q.** How did the IC50 turn out when B2 was run?
**A.** Its IC50 is 0.102 µM.

**Q.** B3 was tested. Which IC50 did it give?
**A.** Its IC50 is 0.126 µM.

**Q.** With B4 as the binder, how does the IC50 read?
**A.** The IC50 was 0.061 µM.

**Q.** B5 was tested. Which IC50 did it give?
**A.** Its IC50 is 0.084 µM.

**Q.** For B6, which IC50 is on record?
**A.** Its IC50 is 0.036 µM.

Molecular target: T2, full-length beta-Catenin (Uniprot ID P35222) (Homo sapiens (Human), UniProt P35222 1-781)
T2 construct: Tags are not described; Also used here as the target of the DLD1 TCF reporter read-out (endogenous beta-catenin in DLD1 cells); also called bCat; B-Catenin
T2 sequence: T1 sequence
Test: fluorescence polarization competition; full-length beta-catenin with 5FAM-TCF4(10-53) probe, peptide titrated
Experimental: as §1

**Q.** How did the IC50 turn out when B7 was run?
**A.** The IC50 was 0.012 µM.

**Q.** With B8 as the binder, how does the IC50 read?
**A.** Its IC50 is 0.005 µM.

**Q.** B9 was tested. Which IC50 did it give?
**A.** Its IC50 is 0.005 µM.

**Q.** B10 was tested. Which IC50 did it give?
**A.** The IC50 was 0.014 µM.

Molecular target: T3, full-length beta-Catenin (Uniprot ID P35222) (Homo sapiens (Human), UniProt P35222 2-781)
T3 construct: The assay protocols say only 'full-length'; No tag is stated, although the AlphaScreen kit is a Histidine (Nickel Chelate) kit; also called B-Catenin; bCat
T3 sequence: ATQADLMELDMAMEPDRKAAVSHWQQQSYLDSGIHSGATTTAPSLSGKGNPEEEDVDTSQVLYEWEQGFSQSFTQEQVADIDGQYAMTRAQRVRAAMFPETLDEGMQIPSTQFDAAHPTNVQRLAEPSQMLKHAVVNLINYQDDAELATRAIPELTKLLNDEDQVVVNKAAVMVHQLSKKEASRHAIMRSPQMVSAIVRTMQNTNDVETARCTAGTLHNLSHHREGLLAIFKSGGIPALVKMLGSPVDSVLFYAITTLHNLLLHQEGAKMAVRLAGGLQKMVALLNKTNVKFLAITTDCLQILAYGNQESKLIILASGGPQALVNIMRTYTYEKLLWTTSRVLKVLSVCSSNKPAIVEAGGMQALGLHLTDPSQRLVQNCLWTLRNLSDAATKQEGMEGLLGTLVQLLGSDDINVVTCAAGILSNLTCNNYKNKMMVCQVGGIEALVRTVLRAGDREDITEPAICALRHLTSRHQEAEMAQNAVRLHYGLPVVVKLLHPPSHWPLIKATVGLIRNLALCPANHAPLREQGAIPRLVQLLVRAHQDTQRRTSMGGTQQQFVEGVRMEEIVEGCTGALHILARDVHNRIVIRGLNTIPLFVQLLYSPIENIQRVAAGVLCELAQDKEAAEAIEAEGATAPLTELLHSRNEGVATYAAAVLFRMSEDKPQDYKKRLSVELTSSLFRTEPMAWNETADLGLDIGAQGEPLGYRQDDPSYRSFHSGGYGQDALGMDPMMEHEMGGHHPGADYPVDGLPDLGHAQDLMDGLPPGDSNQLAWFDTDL
Test: AlphaScreen competition; peptide titrated against full-length beta-catenin + biotin-TCF4(10-53)
Experimental: as §1, with “Equal volume of the titrated peptide was added to the” for “The”, “and” for “was”, “incubated for 15 minutes at 20° C. Then 4 uL of donor and 4 uL acceptor beads at 10 ug/mL were added to the plate, for a 16 uL reaction pool and” for “incubated”

**Q.** B11 was tested. Which EC50 did it give?
**A.** Its EC50 is 10 µM.

**Q.** How did the EC50 turn out when B12 was run?
**A.** The EC50 was 8.2 µM.

Molecular target: T3, full-length beta-Catenin (Uniprot ID …)
Test: fluorescence polarization competition; peptide titrated against full-length beta-catenin + 5FAM-TCF4(10-53) probe
Experimental: as §1

**Q.** For B11, which EC50 is on record?
**A.** Its EC50 is 5 µM.

**Q.** How did the EC50 turn out when B12 was run?
**A.** The EC50 was 5 µM.

Molecular target: T4, B-cat-Halo (beta-catenin HaloTag NanoBRET construct expressed in HEK293 cells) (UniProt P35222 1-781, HaloTag NanoBRET 618 Ligand bound to the HaloTag)
T4 sequence (looked up): T1 sequence
Test: cell-based or functional assay

**Q.** Which “NanoBRET Abs IC50” value does the source give for B1 here?
**A.** Its value is greater than 20 µM.

**Q.** B2 was tested. Which “NanoBRET Abs IC50” value did it give?
**A.** The value was 31.4 µM.

**Q.** How did the “NanoBRET Abs IC50” value turn out when B3 was run?
**A.** The value was greater than 20 µM.

**Q.** B4 was tested. Which “NanoBRET Abs IC50” value did it give?
**A.** Its value is 36.9 µM.

**Q.** With B5 as the binder, how does the “NanoBRET Abs IC50” value read?
**A.** The value was greater than 20 µM.

**Q.** Which “NanoBRET Abs IC50” value does the source give for B6 here?
**A.** Its value is 30.3 µM.

Molecular target: T5, B-cat-Halo (UniProt P35222 1-781)
T5 sequence (looked up): T1 sequence
Test: cell-based or functional assay

**Q.** How did the “NanoBRET Abs IC50” value turn out when B7 was run?
**A.** The value was greater than 20 µM.

**Q.** With B8 as the binder, how does the “NanoBRET Abs IC50” value read?
**A.** The value was 23.9 µM.

**Q.** B9 was tested. Which “NanoBRET Abs IC50” value did it give?
**A.** The value was 28.4 µM.

**Q.** How did the “NanoBRET Abs IC50” value turn out when B10 was run?
**A.** Its value is greater than 20 µM.
